The source of these data is the Human Domainome abundance scans (Beltran et al. 2025).

± gives the uncertainty stated by the source.

The labels stand for the following.
B1: Tumor protein 63, residues 545 to 610; numbered along this chain, Q9H3D4 (parent)
chain: TDCSIVSFLARLGCSSCLDYFTTQGLTTIYQIEHYSMDDLASLKIPEQFRHAIWKGILDHRQLHEF

This data set covers variants of B1. Put plainly: abundance fitness (aPCA) (normalised: wild type 0, dead -1); higher = more abundant; growth selection in yeast, the domain comes from the species named. The settings on record: Homo sapiens.
In the case of TDCSIVSFLARLGCSSCLDYFTTQGLTTIYQIEHYSFDDLASLKIPEQFRHAIWKGILDHRQLHEF, the abundance fitness was -0.009 ± 0.072. For TDCSIVSFLARLGCSSCLDYFTTQGLTTIYQIEHYSPDDLASLKIPEQFRHAIWKGILDHRQLHEF, the abundance fitness is -0.014 ± 0.037. As to TDCSIVSFLARLGCSSCLDYFTTQGLTTIYQIEHYSADDLASLKIPEQFRHAIWKGILDHRQLHEF, the abundance fitness was -0.063 ± 0.025. In the case of TDCSIVSFLARLGCSSCLDYFTTQGLTTIYQIEHYSNDDLASLKIPEQFRHAIWKGILDHRQLHEF, the abundance fitness is -0.132 ± 0.037.

With TDCSIVSFLARLGCSSCLDYFTTQGLTTIYQIEHYSTDDLASLKIPEQFRHAIWKGILDHRQLHEF, the abundance fitness is -0.076 ± 0.029. For TDCSIVSFLARLGCSSCLDYFTTQGLTTIYQIEHYSCDDLASLKIPEQFRHAIWKGILDHRQLHEF the value was -0.083 ± 0.039; for TDCSIVSFLARLGCSSCLDYFTTQGLTTIYQIEHYSVDDLASLKIPEQFRHAIWKGILDHRQLHEF, -0.011 ± 0.027. Turning to TDCSIVSFLARLGCSSCLDYFTTQGLTTIYQIEHYSYDDLASLKIPEQFRHAIWKGILDHRQLHEF, the abundance fitness is -0.049 ± 0.05. As for TDCSIVSFLARLGCSSCLDYFTTQGLTTIYQIEHYSDDDLASLKIPEQFRHAIWKGILDHRQLHEF, the figure is -0.138 ± 0.039; as for TDCSIVSFLARLGCSSCLDYFTTQGLTTIYQIEHYSWDDLASLKIPEQFRHAIWKGILDHRQLHEF, -0.071 ± 0.044; as for TDCSIVSFLARLGCSSCLDYFTTQGLTTIYQIEHYSQDDLASLKIPEQFRHAIWKGILDHRQLHEF, -0.07 ± 0.031. Turning to TDCSIVSFLARLGCSSCLDYFTTQGLTTIYQIEHYSRDDLASLKIPEQFRHAIWKGILDHRQLHEF, the abundance fitness was -0.037 ± 0.026. Regarding TDCSIVSFLARLGCSSCLDYFTTQGLTTIYQIEHYSEDDLASLKIPEQFRHAIWKGILDHRQLHEF, the abundance fitness was -0.014 ± 0.039. In the case of TDCSIVSFLARLGCSSCLDYFTTQGLTTIYQIEHYSGDDLASLKIPEQFRHAIWKGILDHRQLHEF, the abundance fitness is -0.215 ± 0.028. For the variant TDCSIVSFLARLGCSSCLDYFTTQGLTTIYQIEHYSSDDLASLKIPEQFRHAIWKGILDHRQLHEF, the abundance fitness is -0.083 ± 0.025. In the case of TDCSIVSFLARLGCSSCLDYFTTQGLTTIYQIEHYSMDDDASLKIPEQFRHAIWKGILDHRQLHEF, the abundance fitness is -0.897 ± 0.096. TDCSIVSFLARLGCSSCLDYFTTQGLTTIYQIEHYSMDDFASLKIPEQFRHAIWKGILDHRQLHEF: the abundance fitness was -0.043 ± 0.048.

For the variant TDCSIVSFLARLGCSSCLDYFTTQGLTTIYQIEHYSMDDKASLKIPEQFRHAIWKGILDHRQLHEF, the abundance fitness is -1.02 ± 0.3. Take TDCSIVSFLARLGCSSCLDYFTTQGLTTIYQIEHYSMDDIASLKIPEQFRHAIWKGILDHRQLHEF: the abundance fitness was -0.037 ± 0.04. As for TDCSIVSFLARLGCSSCLDYFTTQGLTTIYQIEHYSMDDEASLKIPEQFRHAIWKGILDHRQLHEF, the figure is -1.03 ± 0.11.

On to TDCSIVSFLARLGCSSCLDYFTTQGLTTIYQIEHYSMDDAASLKIPEQFRHAIWKGILDHRQLHEF, for which the abundance fitness was -0.967 ± 0.06.

Regarding TDCSIVSFLARLGCSSCLDYFTTQGLTTIYQIEHYSMDDCASLKIPEQFRHAIWKGILDHRQLHEF, the abundance fitness is -0.509 ± 0.066.

For the variant TDCSIVSFLARLGCSSCLDYFTTQGLTTIYQIEHYSMDDGASLKIPEQFRHAIWKGILDHRQLHEF, the abundance fitness was -0.993 ± 0.041.

For TDCSIVSFLARLGCSSCLDYFTTQGLTTIYQIEHYSMDHLASLKIPEQFRHAIWKGILDHRQLHEF, the abundance fitness is -0.163 ± 0.049. TDCSIVSFLARLGCSSCLDYFTTQGLTTIYQIEHYSMDYLASLKIPEQFRHAIWKGILDHRQLHEF: the abundance fitness is -0.437 ± 0.042.

Turning to TDCSIVSFLARLGCSSCLDYFTTQGLTTIYQIEHYSMDRLASLKIPEQFRHAIWKGILDHRQLHEF, the abundance fitness was -0.171 ± 0.02. For the variant TDCSIVSFLARLGCSSCLDYFTTQGLTTIYQIEHYSMDPLASLKIPEQFRHAIWKGILDHRQLHEF, the abundance fitness was -0.864 ± 0.081.

Regarding TDCSIVSFLARLGCSSCLDYFTTQGLTTIYQIEHYSMDVLASLKIPEQFRHAIWKGILDHRQLHEF, the abundance fitness was -0.265 ± 0.032. In the case of TDCSIVSFLARLGCSSCLDYFTTQGLTTIYQIEHYSMDSLASLKIPEQFRHAIWKGILDHRQLHEF, the abundance fitness is -0.143 ± 0.029.

For the variant TDCSIVSFLARLGCSSCLDYFTTQGLTTIYQIEHYSMDWLASLKIPEQFRHAIWKGILDHRQLHEF, the abundance fitness is -0.554 ± 0.03. As for TDCSIVSFLARLGCSSCLDYFTTQGLTTIYQIEHYSMDTLASLKIPEQFRHAIWKGILDHRQLHEF, the abundance fitness is -0.124 ± 0.036. TDCSIVSFLARLGCSSCLDYFTTQGLTTIYQIEHYSMDALASLKIPEQFRHAIWKGILDHRQLHEF: the abundance fitness was -0.108 ± 0.03. For TDCSIVSFLARLGCSSCLDYFTTQGLTTIYQIEHYSMDFLASLKIPEQFRHAIWKGILDHRQLHEF, the abundance fitness is -0.478 ± 0.037.

Turning to TDCSIVSFLARLGCSSCLDYFTTQGLTTIYQIEHYSMDQLASLKIPEQFRHAIWKGILDHRQLHEF, the abundance fitness is -0.032 ± 0.044. Take TDCSIVSFLARLGCSSCLDYFTTQGLTTIYQIEHYSMDKLASLKIPEQFRHAIWKGILDHRQLHEF: the abundance fitness is -0.093 ± 0.031. For TDCSIVSFLARLGCSSCLDYFTTQGLTTIYQIEHYSMDELASLKIPEQFRHAIWKGILDHRQLHEF the value was -0.047 ± 0.048; for TDCSIVSFLARLGCSSCLDYFTTQGLTTIYQIEHYSMDLLASLKIPEQFRHAIWKGILDHRQLHEF, -0.238 ± 0.025; for TDCSIVSFLARLGCSSCLDYFTTQGLTTIYQIEHYSMDILASLKIPEQFRHAIWKGILDHRQLHEF, -0.449 ± 0.07. TDCSIVSFLARLGCSSCLDYFTTQGLTTIYQIEHYNMDDLASLKIPEQFRHAIWKGILDHRQLHEF: the abundance fitness is 0.009 ± 0.055. Consider TDCSIVSFLARLGCSSCLDYFTTQGLTTIYQIEHYQMDDLASLKIPEQFRHAIWKGILDHRQLHEF, for which the abundance fitness is -0.049 ± 0.044. As for TDCSIVSFLARLGCSSCLDYFTTQGLTTIYQIEHYWMDDLASLKIPEQFRHAIWKGILDHRQLHEF, the figure is -0.436 ± 0.05.
